The target in this assay is ΔEed (Eed residues 77 to 441) (UniProt O75530). Kind of assay: ITC; ΔEed (residues 77 to 441) with methylated peptides; conditions in the Supplemental Experimental Procedures.
Sequence of ΔEed (Eed residues 77 to 441) (O75530 77-441, stated change not applied): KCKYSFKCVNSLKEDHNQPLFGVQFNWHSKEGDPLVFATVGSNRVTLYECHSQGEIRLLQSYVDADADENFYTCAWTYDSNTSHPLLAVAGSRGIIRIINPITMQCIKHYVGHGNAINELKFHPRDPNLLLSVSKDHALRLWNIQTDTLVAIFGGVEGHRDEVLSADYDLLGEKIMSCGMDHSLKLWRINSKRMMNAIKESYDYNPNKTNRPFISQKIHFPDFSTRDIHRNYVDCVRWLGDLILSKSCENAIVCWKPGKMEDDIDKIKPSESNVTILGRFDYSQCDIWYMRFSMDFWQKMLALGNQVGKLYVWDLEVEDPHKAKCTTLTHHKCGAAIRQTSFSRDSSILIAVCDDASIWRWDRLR

On to Jarid2-K116me3 peptide, for which the Kd was 3000 nM and the fold affinity against the H3K27me3 peptide was 10 fold.
